Experiment in all cases: EC50 of free RNA motif oligo competing protein binding to immobilised probe
One data set addresses T1, SF3B3 (UniProt Q15393).
T1 sequence: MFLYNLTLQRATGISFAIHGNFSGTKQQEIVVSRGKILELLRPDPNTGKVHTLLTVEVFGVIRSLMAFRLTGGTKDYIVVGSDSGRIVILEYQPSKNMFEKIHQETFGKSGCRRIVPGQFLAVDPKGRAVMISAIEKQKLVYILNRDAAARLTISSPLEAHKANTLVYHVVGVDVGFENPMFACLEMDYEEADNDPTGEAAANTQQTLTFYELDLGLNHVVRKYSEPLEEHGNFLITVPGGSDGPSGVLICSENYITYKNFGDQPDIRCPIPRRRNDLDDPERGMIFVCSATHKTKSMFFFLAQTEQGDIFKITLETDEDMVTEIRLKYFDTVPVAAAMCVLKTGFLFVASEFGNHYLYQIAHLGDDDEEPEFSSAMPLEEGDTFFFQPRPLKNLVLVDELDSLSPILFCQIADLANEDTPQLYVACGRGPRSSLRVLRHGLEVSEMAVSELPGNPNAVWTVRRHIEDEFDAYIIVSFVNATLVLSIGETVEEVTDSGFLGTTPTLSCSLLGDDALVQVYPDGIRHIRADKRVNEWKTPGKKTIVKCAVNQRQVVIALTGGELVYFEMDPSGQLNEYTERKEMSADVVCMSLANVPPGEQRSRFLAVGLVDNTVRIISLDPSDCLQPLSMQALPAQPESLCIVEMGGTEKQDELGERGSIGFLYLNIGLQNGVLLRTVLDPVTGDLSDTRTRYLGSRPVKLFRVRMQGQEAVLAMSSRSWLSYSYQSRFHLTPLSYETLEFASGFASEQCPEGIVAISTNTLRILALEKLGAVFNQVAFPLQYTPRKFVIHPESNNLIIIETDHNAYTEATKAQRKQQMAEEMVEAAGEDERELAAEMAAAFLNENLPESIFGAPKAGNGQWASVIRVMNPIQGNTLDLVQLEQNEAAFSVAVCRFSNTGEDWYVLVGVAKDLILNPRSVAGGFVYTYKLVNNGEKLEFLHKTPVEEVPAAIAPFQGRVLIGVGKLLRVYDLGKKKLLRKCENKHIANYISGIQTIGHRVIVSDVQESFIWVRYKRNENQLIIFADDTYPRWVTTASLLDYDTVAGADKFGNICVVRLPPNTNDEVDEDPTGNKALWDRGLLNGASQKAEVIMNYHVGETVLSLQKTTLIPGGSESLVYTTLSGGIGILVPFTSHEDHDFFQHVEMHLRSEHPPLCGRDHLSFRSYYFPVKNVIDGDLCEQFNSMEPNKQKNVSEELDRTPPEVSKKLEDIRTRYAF
In outline:
(§1)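 Free RNA oligos (0 nM to 30 μM) were pre-incubated with HEK293-FT lysate (2.5 mg protein/well) for 1 h at 4°C, followed by 30 min at 4°C with the same 5′-amino-C6 oligos coupled to NHS-Sepharose beads. Bound proteins were quantified by label-free LC-MS/MS and normalised to the control. EC50 was derived from a four-parameter log-logistic fit, and Kd was obtained by multiplying EC50 by a protein-dependent depletion factor.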

The target of a further data set is MRPL48 (UniProt Q96GC5). In outline: as §1
In another data set the target is T2, HNRNPM (UniProt P52272).
T2 sequence: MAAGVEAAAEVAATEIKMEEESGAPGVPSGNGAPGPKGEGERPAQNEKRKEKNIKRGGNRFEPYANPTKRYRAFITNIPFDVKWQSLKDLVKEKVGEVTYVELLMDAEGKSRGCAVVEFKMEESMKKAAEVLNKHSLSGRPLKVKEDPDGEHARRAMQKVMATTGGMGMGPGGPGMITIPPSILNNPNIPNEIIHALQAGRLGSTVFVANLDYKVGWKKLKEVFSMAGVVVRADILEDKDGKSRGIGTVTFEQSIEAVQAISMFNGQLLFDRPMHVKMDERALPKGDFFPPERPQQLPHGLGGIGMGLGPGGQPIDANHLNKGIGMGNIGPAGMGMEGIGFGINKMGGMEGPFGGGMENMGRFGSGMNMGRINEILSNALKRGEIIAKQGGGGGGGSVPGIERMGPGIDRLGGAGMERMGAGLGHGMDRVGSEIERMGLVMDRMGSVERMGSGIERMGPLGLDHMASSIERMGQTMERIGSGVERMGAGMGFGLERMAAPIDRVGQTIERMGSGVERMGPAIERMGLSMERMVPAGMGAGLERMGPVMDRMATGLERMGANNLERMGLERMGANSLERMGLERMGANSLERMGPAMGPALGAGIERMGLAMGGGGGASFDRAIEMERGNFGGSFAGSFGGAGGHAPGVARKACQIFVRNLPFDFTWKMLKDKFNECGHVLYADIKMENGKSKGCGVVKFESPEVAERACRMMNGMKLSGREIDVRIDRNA
In outline:
as §1

A further data set addresses T3, CDKN2AIP (UniProt Q9NXV6).
T3 sequence: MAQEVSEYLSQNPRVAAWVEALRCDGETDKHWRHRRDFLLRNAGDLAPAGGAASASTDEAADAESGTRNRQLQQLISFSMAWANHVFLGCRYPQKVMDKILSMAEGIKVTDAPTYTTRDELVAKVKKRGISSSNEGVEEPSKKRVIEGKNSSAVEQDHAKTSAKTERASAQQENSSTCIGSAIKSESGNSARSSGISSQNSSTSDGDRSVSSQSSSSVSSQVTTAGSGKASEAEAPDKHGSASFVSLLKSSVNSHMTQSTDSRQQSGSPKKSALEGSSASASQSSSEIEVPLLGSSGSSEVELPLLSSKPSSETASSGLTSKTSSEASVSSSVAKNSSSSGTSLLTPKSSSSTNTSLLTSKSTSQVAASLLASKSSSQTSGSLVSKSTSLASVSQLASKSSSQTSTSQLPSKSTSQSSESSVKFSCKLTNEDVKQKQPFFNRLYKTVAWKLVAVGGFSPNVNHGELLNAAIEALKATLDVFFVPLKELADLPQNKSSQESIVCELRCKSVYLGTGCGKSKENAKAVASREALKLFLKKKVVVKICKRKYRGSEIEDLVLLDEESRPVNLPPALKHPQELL
In outline:
as §1

In the data set with SF3B3, AAUAAA showed an EC50 of 4.88 µM.

As for CUGUCCU, in the data set with MRPL48, the EC50 was determined as 177 nM.

With UAUUUAU, the EC50 with HNRNPM worked out at 6.8 µM; with CDKN2AIP, 419 nM.

The values above are taken from the supplement of paper PMC6379048.
